Measured values from publication PMC10806198, “Effects of OxyR regulator on oxidative stress, Apx toxin secretion and virulence of Actinobacillus pleuropneumoniae”.

T1: OxyR (rOxyR) (Actinobacillus pleuropneumoniae 4074 …, UniProt A0ABM6X4Q0 1-297)
T1 sequence: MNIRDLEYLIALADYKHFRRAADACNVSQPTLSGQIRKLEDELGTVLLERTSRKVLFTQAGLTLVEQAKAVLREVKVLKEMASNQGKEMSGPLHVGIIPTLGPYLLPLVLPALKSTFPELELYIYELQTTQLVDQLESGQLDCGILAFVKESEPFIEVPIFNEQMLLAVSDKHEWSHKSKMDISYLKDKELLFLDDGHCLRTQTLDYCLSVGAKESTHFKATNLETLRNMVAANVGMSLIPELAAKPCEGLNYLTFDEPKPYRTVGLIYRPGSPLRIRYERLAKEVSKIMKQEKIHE

B1: apxIBD promoter probe (ApxIBDp) (dsDNA)
DNA 1: ATGATAAATAGCAATCCTATATATATTAGGTGTGTAGGAT
DNA 2: ATCCTACACACCTAATATATATAGGATTGCTATTTATCAT
B2: oxyR promoter probe (oxyRp) (dsDNA)
DNA 1: GAACGTACCAGCCGTAAGGTATTATTTACCCAAGCCGGTT
DNA 2: AACCGGCTTGGGTAAATAATACCTTACGGCTGGTACGTTC
B3: catalase promoter probe (05430p) (dsDNA)
DNA 1: ATAATAATATATCCATACACAAAACCTATTAACATTCCAA
DNA 2: TTGGAATGTTAATAGGTTTTGTGTATGGATATATTATTAT

Each binder was assayed against T1, OxyR (rOxyR) (assay: EMSA; dose-dependent; abolished by excess unlabeled probe; Lightshift EMSA binding buffer (composition and pH not given), 0.5 ul poly[d(I-C)], 10 ul, 25 C 30 min; 5% native PAGE in 0.5x TBE). Conditions: protein: recombinant; tags: His (pET28a NdeI/XhoI, HisTrap purified); chain copies: 4; label: biotin 3'-end; blunt.

Binder	binding result
B1	binds
B2	binds
B3	binds
